PMC3334620

What was measured:
Settings in all cases: 200 nM
[1] = target: T1, Sut1 (Saccharomyces cerevisiae) (UniProt P53032)
T1 sequence: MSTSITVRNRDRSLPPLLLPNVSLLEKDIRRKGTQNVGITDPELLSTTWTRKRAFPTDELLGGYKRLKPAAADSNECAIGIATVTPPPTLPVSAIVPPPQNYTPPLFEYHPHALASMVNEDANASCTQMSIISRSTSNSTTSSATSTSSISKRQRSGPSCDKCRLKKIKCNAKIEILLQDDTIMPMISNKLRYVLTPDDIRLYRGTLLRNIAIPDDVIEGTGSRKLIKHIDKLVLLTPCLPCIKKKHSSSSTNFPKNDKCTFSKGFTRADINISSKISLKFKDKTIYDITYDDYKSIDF

[2] = target: T2, Upc2 (Saccharomyces cerevisiae) (UniProt Q12151)
T2 sequence: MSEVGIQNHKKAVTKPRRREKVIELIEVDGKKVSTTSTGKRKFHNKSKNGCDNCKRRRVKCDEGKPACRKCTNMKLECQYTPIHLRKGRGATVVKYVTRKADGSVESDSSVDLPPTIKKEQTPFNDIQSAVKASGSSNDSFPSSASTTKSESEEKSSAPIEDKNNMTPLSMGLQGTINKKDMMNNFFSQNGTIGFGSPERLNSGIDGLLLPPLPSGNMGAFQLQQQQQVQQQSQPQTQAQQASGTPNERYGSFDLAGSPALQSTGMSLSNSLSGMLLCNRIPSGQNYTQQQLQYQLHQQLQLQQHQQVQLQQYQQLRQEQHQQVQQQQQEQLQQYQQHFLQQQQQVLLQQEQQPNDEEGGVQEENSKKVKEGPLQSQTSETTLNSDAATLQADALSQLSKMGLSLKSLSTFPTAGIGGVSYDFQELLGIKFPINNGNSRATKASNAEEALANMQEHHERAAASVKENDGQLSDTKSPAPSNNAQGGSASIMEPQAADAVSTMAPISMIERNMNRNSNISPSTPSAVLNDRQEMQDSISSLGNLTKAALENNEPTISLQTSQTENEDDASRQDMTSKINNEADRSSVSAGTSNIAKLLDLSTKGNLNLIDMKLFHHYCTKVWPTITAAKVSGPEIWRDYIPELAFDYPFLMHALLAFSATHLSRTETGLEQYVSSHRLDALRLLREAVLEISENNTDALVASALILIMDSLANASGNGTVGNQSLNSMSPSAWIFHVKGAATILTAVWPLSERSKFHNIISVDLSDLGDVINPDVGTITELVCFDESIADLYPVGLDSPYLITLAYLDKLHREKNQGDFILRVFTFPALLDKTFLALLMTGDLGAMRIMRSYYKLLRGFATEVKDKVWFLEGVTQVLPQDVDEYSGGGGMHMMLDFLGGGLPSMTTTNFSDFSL

[3] = target: T3, Stp1 (Saccharomyces cerevisiae) (UniProt Q00947)
T3 sequence: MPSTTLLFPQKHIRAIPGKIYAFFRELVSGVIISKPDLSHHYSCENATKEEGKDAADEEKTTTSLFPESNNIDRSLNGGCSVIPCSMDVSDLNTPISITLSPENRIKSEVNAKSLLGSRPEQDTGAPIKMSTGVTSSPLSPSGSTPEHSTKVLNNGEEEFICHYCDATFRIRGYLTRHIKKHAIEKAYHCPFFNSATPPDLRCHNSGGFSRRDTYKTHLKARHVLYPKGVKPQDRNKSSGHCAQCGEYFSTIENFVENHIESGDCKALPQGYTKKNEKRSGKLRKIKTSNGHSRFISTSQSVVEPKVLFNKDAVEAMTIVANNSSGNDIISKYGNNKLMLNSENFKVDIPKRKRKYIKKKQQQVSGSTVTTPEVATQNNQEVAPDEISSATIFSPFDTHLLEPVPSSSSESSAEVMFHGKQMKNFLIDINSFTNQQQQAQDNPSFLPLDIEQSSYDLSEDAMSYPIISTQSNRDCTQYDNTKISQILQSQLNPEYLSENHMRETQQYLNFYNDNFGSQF

[4] = target: T4, Stb5 (Saccharomyces cerevisiae) (UniProt P38699)
T4 sequence: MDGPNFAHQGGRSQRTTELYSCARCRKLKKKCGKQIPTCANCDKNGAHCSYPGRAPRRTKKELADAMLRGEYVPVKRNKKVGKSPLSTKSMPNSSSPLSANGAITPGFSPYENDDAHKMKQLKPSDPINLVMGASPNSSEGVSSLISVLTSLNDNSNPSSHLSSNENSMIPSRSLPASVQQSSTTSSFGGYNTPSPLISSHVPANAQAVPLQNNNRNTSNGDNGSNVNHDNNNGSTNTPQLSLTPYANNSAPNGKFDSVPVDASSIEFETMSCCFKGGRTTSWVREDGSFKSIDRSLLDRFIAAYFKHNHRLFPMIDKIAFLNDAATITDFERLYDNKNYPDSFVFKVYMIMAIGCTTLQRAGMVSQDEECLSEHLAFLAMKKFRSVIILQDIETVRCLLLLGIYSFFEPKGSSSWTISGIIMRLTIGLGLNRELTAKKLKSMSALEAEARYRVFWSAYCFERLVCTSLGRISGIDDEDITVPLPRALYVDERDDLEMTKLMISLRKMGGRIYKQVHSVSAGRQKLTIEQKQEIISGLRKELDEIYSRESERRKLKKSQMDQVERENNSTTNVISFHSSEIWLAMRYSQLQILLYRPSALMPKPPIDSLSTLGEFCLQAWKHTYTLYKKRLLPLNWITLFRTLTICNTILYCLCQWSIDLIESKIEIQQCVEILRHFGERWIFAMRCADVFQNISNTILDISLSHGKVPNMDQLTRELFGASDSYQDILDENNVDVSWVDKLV

[5] = target: T5, Ecm22 (Saccharomyces cerevisiae) (UniProt Q05958)
T5 sequence: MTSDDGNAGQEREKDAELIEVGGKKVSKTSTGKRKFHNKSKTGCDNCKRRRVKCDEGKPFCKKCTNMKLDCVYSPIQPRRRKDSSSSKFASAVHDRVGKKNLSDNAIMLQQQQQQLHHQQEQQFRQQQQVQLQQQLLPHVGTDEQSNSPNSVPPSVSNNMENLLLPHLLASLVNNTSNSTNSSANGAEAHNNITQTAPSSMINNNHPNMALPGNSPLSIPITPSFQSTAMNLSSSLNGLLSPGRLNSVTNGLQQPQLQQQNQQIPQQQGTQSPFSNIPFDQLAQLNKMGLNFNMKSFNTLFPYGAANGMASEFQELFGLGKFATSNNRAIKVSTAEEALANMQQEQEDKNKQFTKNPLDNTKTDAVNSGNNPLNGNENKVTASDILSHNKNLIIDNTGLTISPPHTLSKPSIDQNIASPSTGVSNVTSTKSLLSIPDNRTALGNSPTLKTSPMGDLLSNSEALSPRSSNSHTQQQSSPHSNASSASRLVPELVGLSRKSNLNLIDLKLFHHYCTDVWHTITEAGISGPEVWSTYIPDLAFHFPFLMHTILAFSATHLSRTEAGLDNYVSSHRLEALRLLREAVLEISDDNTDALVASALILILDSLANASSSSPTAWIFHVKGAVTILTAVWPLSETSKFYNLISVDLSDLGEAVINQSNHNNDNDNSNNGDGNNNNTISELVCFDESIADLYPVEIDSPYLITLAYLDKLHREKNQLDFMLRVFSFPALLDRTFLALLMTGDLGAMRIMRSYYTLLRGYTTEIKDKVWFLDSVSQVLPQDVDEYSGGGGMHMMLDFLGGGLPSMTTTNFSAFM

Sequence | binding signal (PBM E-score (-0.5 to 0.5)) [1] | binding signal (PBM E-score (-0.5 to 0.5)) [2] | also measured
AAACTCCG (double strand) [8-mer AAACTCCG] | 0.498 |  | 
AAAGTCCG (double strand) [8-mer AAAGTCCG] | 0.496 |  | 
AACTCCGA (double strand) [8-mer AACTCCGA] | 0.499 |  | 
AACTCCGG (double strand) [8-mer AACTCCGG] | 0.499 |  | 
AACTCCGT (double strand) [8-mer AACTCCGT] | 0.496 |  | 
AAGTCCGA (double strand) [8-mer AAGTCCGA] | 0.498 |  | 
AAGTCCGG (double strand) [8-mer AAGTCCGG] | 0.497 |  | 
ACTCCGAA (double strand) [8-mer ACTCCGAA] | 0.495 |  | 
ACTCCGAG (double strand) [8-mer ACTCCGAG] | 0.494 |  | 
ATAAACGA (double strand) [8-mer ATAAACGA] |  | 0.494 | 
ATCGTATA (double strand) [8-mer ATCGTATA] |  | 0.493 | 
ATCGTTTA (double strand) [8-mer ATCGTTTA] |  | 0.495 | 
CAACTCCG (double strand) [8-mer CAACTCCG] | 0.497 |  | 
CAAGTCCG (double strand) [8-mer CAAGTCCG] | 0.492 |  | 
CACGGCGC (double strand) [8-mer CACGGCGC] |  |  | binding signal (PBM E-score (-0.5 to 0.5)) [3]: 0.493
CGCACGGC (double strand) [8-mer CGCACGGC] |  |  | binding signal (PBM E-score (-0.5 to 0.5)) [3]: 0.488
CGCCGTGC (double strand) [8-mer CGCCGTGC] |  |  | binding signal (PBM E-score (-0.5 to 0.5)) [3]: 0.493
CGCGGCAC (double strand) [8-mer CGCGGCAC] |  |  | binding signal (PBM E-score (-0.5 to 0.5)) [3]: 0.49
CGCGGCGC (double strand) [8-mer CGCGGCGC] |  |  | binding signal (PBM E-score (-0.5 to 0.5)) [3]: 0.492

Sequence | binding signal (PBM E-score (-0.5 to 0.5)) [1] | binding signal (PBM E-score (-0.5 to 0.5)) [2] | also measured
CGGACTTC (double strand) [8-mer CGGACTTC] | 0.496 |  | 
CGGAGTTA (double strand) [8-mer CGGAGTTA] | 0.495 |  | binding signal (PBM E-score (-0.5 to 0.5)) [4]: 0.487
CGGAGTTC (double strand) [8-mer CGGAGTTC] | 0.498 |  | 
CGTATACG (double strand) [8-mer CGTATACG] |  | 0.494 | 
CTAAACGA (double strand) [8-mer CTAAACGA] |  | 0.496 | binding signal (PBM E-score (-0.5 to 0.5)) [5]: 0.493
CTATACGA (double strand) [8-mer CTATACGA] |  | 0.498 | binding signal (PBM E-score (-0.5 to 0.5)) [5]: 0.496
CTCGTATA (double strand) [8-mer CTCGTATA] |  | 0.499 | binding signal (PBM E-score (-0.5 to 0.5)) [5]: 0.498
CTCGTTTA (double strand) [8-mer CTCGTTTA] |  | 0.495 | binding signal (PBM E-score (-0.5 to 0.5)) [5]: 0.495
GCACGGCA (double strand) [8-mer GCACGGCA] |  |  | binding signal (PBM E-score (-0.5 to 0.5)) [3]: 0.49
GCGCCGCA (double strand) [8-mer GCGCCGCA] |  |  | binding signal (PBM E-score (-0.5 to 0.5)) [3]: 0.491
GCGCCGTA (double strand) [8-mer GCGCCGTA] |  |  | binding signal (PBM E-score (-0.5 to 0.5)) [3]: 0.495
GTATACGA (double strand) [8-mer GTATACGA] |  | 0.495 | binding signal (PBM E-score (-0.5 to 0.5)) [5]: 0.492
GTCGTATA (double strand) [8-mer GTCGTATA] |  | 0.496 | binding signal (PBM E-score (-0.5 to 0.5)) [5]: 0.497
GTCGTTTA (double strand) [8-mer GTCGTTTA] |  | 0.494 | 
GTGCCGTA (double strand) [8-mer GTGCCGTA] |  |  | binding signal (PBM E-score (-0.5 to 0.5)) [3]: 0.493
TAAACGAA (double strand) [8-mer TAAACGAA] |  | 0.494 | 
TATACGAA (double strand) [8-mer TATACGAA] |  | 0.495 | binding signal (PBM E-score (-0.5 to 0.5)) [5]: 0.494
TCGTATAA (double strand) [8-mer TCGTATAA] |  | 0.497 | binding signal (PBM E-score (-0.5 to 0.5)) [5]: 0.498
TCGTTTAA (double strand) [8-mer TCGTTTAA] |  | 0.497 | binding signal (PBM E-score (-0.5 to 0.5)) [5]: 0.494
